Experimental data from the supplement of paper PMC12764529.
± gives the half width of the 95% confidence interval.

Assay: folding stability dG unfold from trypsin proteolysis; higher = more stable
How it was run: (§1)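 Sequencing followed digestion of designed mini-proteins with trypsin and chymotrypsin, each at 11 concentrations in threefold dilutions together with a no-protease condition. The mini-proteins were under 80 residues, had no cysteine, sat in a PA-tagged cDNA display construct, and were kept only if AlphaFold2 dimer inter-PAE was above 15. From the counts, Bayesian fitting gave K50, and unfolding free energy was derived against a sequence-predicted unfolded-state K50 and a shared folded-state K50, per protease or combined.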

Sequence	folding stability dG unfold
SKIKIKAKDKKTNIPIDEIDIYPLEDGSYGIKIIFTFPKEKKEITIPIPKNKKIEEFIKALGLEEIEIDASA [r9_492_TrMRF]	1 ± 0.1 kcal/mol
SKIRIEWPDETQEIKIPKDASVAIDPGNGHIAIHGPDGEALGFPLGPNWKIEPDDDEIEITIPPPKPEDPSA [r9_653_TrROS]	-0.118 ± 0.15 kcal/mol
SAGSTTRVVELPGNKRVEVEVSTVGDSLTFTITLRDEEGNPVKTLPVAVPDPSLPVEEAIAAAVAAFLASAG [r5_630_JUSTAS]	3.15 ± 0.049 kcal/mol
SAGMTIEVEYTFPPGNPEEAEKRAEEIAEELKPKPLPNITIEISREPVVDPNSDATTTRYTFTITAEPKSAG [r5_49_JUSTAS]	0.821 ± 0.051 kcal/mol
SAGAPLEVPGPLVTVTEEEVPGKPLVFIPTPDGLIVVDLVTGKAERYPLYSEEPIVLDVPPGVVIELPSAGG [r19_138_JUSTAS]	1.02 ± 0.073 kcal/mol
SAGGMEFEFTREDGRKTRVELEVNPETGEVTEKIYVGGKLLYTFKDGELKYIPDEVAAARIEARLPPESAGG [r13_958_TrMRF]	-0.0213 ± 0.12 kcal/mol
PEKVILVEVPAGEELTEEELKELAEALGLEVEIEKVKVTVTVTVEVTLPDGKKVKVETTETRTVVLVTVKDS [r1_238_TrROS_Hall]	2.66 ± 0.077 kcal/mol
SAGGSAGGEYEISIPNYELTEEKFDPNPGLLTVTYKDPEGKLVTITYKVKPDSIEKVKTETFEPSAGGSAGG [r6_719_JUSTAS]	0.569 ± 0.022 kcal/mol
SAGMIKVEVVEKDEKTKEWKVVETKTIPVKPGEKPTVEELAKKLKEKGYEVRIEKTKDGTLKIYVIKKKSAG [r5_269_TrROS_Hall]	3.33 ± 0.2 kcal/mol
SAGGSAGGSAGPNWKKYTFTIFFPGYPFRVEIERPKDGPNAPLAIKIEDPNGKPMETFPISAGGSAGGSAGG [r11_223_TrROS]	2.71 ± 0.11 kcal/mol
MNLSDPVSVAKLKKALEEIKKAIEELKKKGKKIEILAIELNDDSIKITPVTKSEEYIKKKKEEGIEIILLLS [r1_134_JUSTAS]	1.52 ± 0.041 kcal/mol
SAGGSAGGSAGGMEIEKNENGELIIKFKSKEEAEKAIEELKKKGYKVELNEDGYLIIKPSAGGSAGGSAGGS [r10_1027_TrROS_Hall]	3.34 ± 0.16 kcal/mol
SAGGSAGGSAGKEYIVRITLPNGKVYEFPGKLEDVVKALPPEYKDAVIEVFDPRTGKRVSSAGGSAGGSAGG [r11_353_TrMRF]	2.53 ± 0.049 kcal/mol
SAGGATFAPGQTITVTVTVTLADGSTVTVTATVRIEVRAAPAPPVTVTNADGSTRTFTSAEEARAAASAGGS [r16_580_TrROS_Hall]	1.46 ± 0.033 kcal/mol
SAGGSAGGSFKAPPGEKYVLKLRSPENGQEFMVEFTPDNIKISNPNDEKMPFPPDDITDVKDVSAGGSAGGS [r20_35_TrROS]	-0.612 ± 0.33 kcal/mol
SAGGSAGGWREIKIYVPPGMPLEEIKDLIKEFFPGYKVEIDEIEREDNYVKATIRIQPLPPGDFSAGGSAGG [r6_623_TrROS]	3.08 ± 0.092 kcal/mol

Sequence	folding stability dG unfold
SAMVVPVKVELEIRVPGTPEEALEIAEELAKAFESLGNVEVDLELIEKSEDGSYIIKLTVTNYLPPELFSAG [r14_413_TrMRF]	0.905 ± 0.1 kcal/mol
SAGGPFRVRISDEVIKELKKQGLKPGKKSVKITMQYPNGWVFRGTIKIPPANPKIPLKAEPVERLDDSAGGS [r16_497_TrROS]	0.429 ± 0.074 kcal/mol
SAGSSVTAPFSLPSDLVVDSVTYDPDAKTVTVTVTDPRGGRKAVGTFPVWDPNGNPVLSTADSYTFDNPSAG [r5_434_TrMRF]	-0.417 ± 0.03 kcal/mol
SWWYIVTIKIWKPGNGEPKGPIMLFVRSPEEAEEIAEEPAPEHGYDVEVNVKRIPPDDMDDPEQMKEMMNSA [r9_864_TrROS]	1.82 ± 0.035 kcal/mol
SAGGSAGGSAGNLKPVSGGGVLKVEVKDPNTDKKETYLVPPNKPDVVLELAKDGYEVEVSSAGGSAGGSAGG [r11_1006_TrMRF]	0.938 ± 0.11 kcal/mol
SAGTIAKEIAEKLGLPGLKVKDVKFEPDPDGPIKEIEITVEFPNGRYWKIDIRYDPGNIVIDIEPVPPSAGG [r19_392_TrROS]	1.98 ± 0.056 kcal/mol
SAGGTITIELDGVTIEVRVEEKDGTLTLTAKVYNKDTGEVFEIEITITRKEDGSVTITIKITKIEPLPSAGG [r13_1004_TrROS_Hall]	2.44 ± 0.16 kcal/mol
SAGGKKKVTIEIRKNPEEPGKYIIRVKVDGKEIEIEVSEEDLEEILAALKKLLPPGAKIEKIEIRELPSAGG [r13_519_TrROS_Hall]	2.38 ± 0.098 kcal/mol
SAGGNPSASPVVTETELPDGSRVTTTTYPSGTTTRTVTDLVTGKKTLVTTTTTPGTGATTTTTTPVPPSAGG [r13_822_JUSTAS]	0.151 ± 0.019 kcal/mol
SAGGSAGGVLRMVRRALKNGKNRPIVIYVPEPEQRNFIKWLKDEWPGIKIKVVPPDQMPPNQIISAGGSAGG [r6_87_TrROS]	1.42 ± 0.033 kcal/mol
SAGGSAGGSAGNPNTPVIVKITLPGGKEITLEGTVSEAEEIVKKLEEEGHPFVEVEVYNRSAGGSAGGSAGG [r11_946_JUSTAS]	0.422 ± 0.041 kcal/mol
SAGGSAGGSAGSMTPAEEKAREVEERLRREHPEFERVFVRVKEFRPETGEVTIEVEVEPRSAGGSAGGSAGG [r11_617_JUSTAS]	0.292 ± 0.061 kcal/mol
SAWKIEIKEVKRNPDGWYEITITIPFPGDPNMPVDELADEILQEFGIKDVTVEPNPDNGWIEITIRIPRSAG [r14_228_TrROS]	2.45 ± 0.067 kcal/mol
SAGGARVFEVTFPDGSRARIVLLPDGTLLLETDSLDNLVALLEALGVELVSIRRHPDGRVLAVARLPPSAGG [r19_257_TrMRF]	4.49 ± 0.14 kcal/mol
SAGGPKVIVTDPNGVKHEFENLSIPELLSSLPKNGTPILKIEIPLFNPELGGEEPLELEFIFPPELFSAGGS [r16_806_TrMRF]	0.321 ± 0.017 kcal/mol

Assay: folding stability dG unfold from chymotrypsin proteolysis; higher = more stable
How it was run: as §1

Sequence	folding stability dG unfold
SKIKIKAKDKKTNIPIDEIDIYPLEDGSYGIKIIFTFPKEKKEITIPIPKNKKIEEFIKALGLEEIEIDASA [r9_492_TrMRF]	2.33 ± 0.13 kcal/mol
SKIRIEWPDETQEIKIPKDASVAIDPGNGHIAIHGPDGEALGFPLGPNWKIEPDDDEIEITIPPPKPEDPSA [r9_653_TrROS]	0.141 ± 0.056 kcal/mol
SAGSTTRVVELPGNKRVEVEVSTVGDSLTFTITLRDEEGNPVKTLPVAVPDPSLPVEEAIAAAVAAFLASAG [r5_630_JUSTAS]	3.91 ± 0.029 kcal/mol
SAGMTIEVEYTFPPGNPEEAEKRAEEIAEELKPKPLPNITIEISREPVVDPNSDATTTRYTFTITAEPKSAG [r5_49_JUSTAS]	1.19 ± 0.14 kcal/mol
SAGAPLEVPGPLVTVTEEEVPGKPLVFIPTPDGLIVVDLVTGKAERYPLYSEEPIVLDVPPGVVIELPSAGG [r19_138_JUSTAS]	0.398 ± 0.13 kcal/mol
SAGGMEFEFTREDGRKTRVELEVNPETGEVTEKIYVGGKLLYTFKDGELKYIPDEVAAARIEARLPPESAGG [r13_958_TrMRF]	1.84 ± 0.079 kcal/mol
PEKVILVEVPAGEELTEEELKELAEALGLEVEIEKVKVTVTVTVEVTLPDGKKVKVETTETRTVVLVTVKDS [r1_238_TrROS_Hall]	3.42 ± 0.14 kcal/mol
SAGGSAGGEYEISIPNYELTEEKFDPNPGLLTVTYKDPEGKLVTITYKVKPDSIEKVKTETFEPSAGGSAGG [r6_719_JUSTAS]	1.14 ± 0.049 kcal/mol
SAGMIKVEVVEKDEKTKEWKVVETKTIPVKPGEKPTVEELAKKLKEKGYEVRIEKTKDGTLKIYVIKKKSAG [r5_269_TrROS_Hall]	4.08 ± 0.061 kcal/mol
SAGGSAGGSAGPNWKKYTFTIFFPGYPFRVEIERPKDGPNAPLAIKIEDPNGKPMETFPISAGGSAGGSAGG [r11_223_TrROS]	2.61 ± 0.082 kcal/mol
MNLSDPVSVAKLKKALEEIKKAIEELKKKGKKIEILAIELNDDSIKITPVTKSEEYIKKKKEEGIEIILLLS [r1_134_JUSTAS]	0.677 ± 0.37 kcal/mol
SAGGSAGGSAGGMEIEKNENGELIIKFKSKEEAEKAIEELKKKGYKVELNEDGYLIIKPSAGGSAGGSAGGS [r10_1027_TrROS_Hall]	4.07 ± 0.14 kcal/mol
SAGGSAGGSAGKEYIVRITLPNGKVYEFPGKLEDVVKALPPEYKDAVIEVFDPRTGKRVSSAGGSAGGSAGG [r11_353_TrMRF]	4.26 ± 0.057 kcal/mol
SAGGATFAPGQTITVTVTVTLADGSTVTVTATVRIEVRAAPAPPVTVTNADGSTRTFTSAEEARAAASAGGS [r16_580_TrROS_Hall]	0.211 ± 0.25 kcal/mol
SAGGSAGGSFKAPPGEKYVLKLRSPENGQEFMVEFTPDNIKISNPNDEKMPFPPDDITDVKDVSAGGSAGGS [r20_35_TrROS]	0.0465 ± 0.24 kcal/mol
